Consider three molecules from US8445275B2, “Induction of dendritic cell development with macrophage-colony stimulating factor (M-CSF)” (Bavarian Nordic A/S, priority 2007, dated 2013).

For one data set, the system named is M-pDC. The data set is described as follows: Activation and cytokine production of sorted M-pDC by TLR ligands. The data set is classed as cell-based, mouse. The note with it: TLR2 ligand 1 μg/ml, 18 hrs. As for the experimental part: Activation of DC subsets and analysis of cytokine production by ELISA—Unsorted M-CSF or FL BM cultures or sorted DCs (0.25−0.5×10^6 cells/ml) were stimulated for 18-24 hrs in complete media with or without an added stimulus. The stimuli used were as follows: 1 μg/ml Pam-3-Cys, 100 μg/ml poly(I:C), 1 μg/ml LPS, 1 μg/ml R837, 1 mM Loxoribine, 0.5 μM CpG2216, 0.5 μM CpG1668. Culture supernatants were assayed for the presence of IFN-α by two-site ELISA as previously described (21). Other cytokines (IL-12 p70, IL-6, TNF-α, MCP-1 and IFN-γ) were measured using the Cytometric Bead Array, Mouse Inflammation Kit (Becton Dickinson). Stimulated DCs were blocked as stated above and stained with antibodies directed to CD8a, CD40, CD69, CD80 and CD86.
The survival of the M-pDC to these stimuli was extremely poor (<5%), data not shown.
Similar to FL-pDCs and ex-vivo pDCs, sorted M-pDC were activated with ligands for TLR7 and 9, as indicated by elevated expression of CD8a, CD69, CD86 and CD40 (FIG. 3B and data not shown). M-pDC only produced detectable cytokines to TLR7 and 9 ligands (FIG. 3C and data not shown). In response to a type A CpG-ODN (CpG2216) M-pDCs produced high levels of IFN-α (FIG. 3C). […] The production of IL-10, IL-12p70, MCP-1 and IFN-γ by the M-pDC was also tested but none of these cytokines were detected.

The subject of data set [1] is FL cultures (FL-DC generation, Flt3). The data set is described as follows: Inhibitor effect on cell numbers in FL BM cultures (FL-DC generation). The data set is classed as cell-based, mouse. The note with it: range of concentrations. As for the experimental part:
FIG. 4 and FIG. 8. The generation of M-DC is inhibited by a c-FMS inhibitor. Replicate M-CSF and FL cultures were conducted in parallel in the presence or absence of a range of A: cFMS Receptor Tyrosine Kinase Inhibitor or B: Flt3 Inhibitor concentrations. At the end of the culture period all cells were counted. The number of cells harvested from cultures without inhibitor was set at 100%. Cells from cultures containing inhibitor were expressed as a percentage of cells obtained in the absence of inhibitor. The data shown in each panel are from one experiment each, representative of 2 experiments carried out for each of the inhibitors.
(§1) M-CSF and FL BM cultures—BM cells were flushed from femurs and tibiae of mice. Red cell lysis buffer (Sigma-Aldrich) was used to deplete red blood cells from the BM cell suspensions. BM cells were then either cultured directly or after depletion. To deplete, BM cells were incubated for 30 min with rat antibodies to CD11c and CD45R (B220) followed by 30 min incubation with goat anti-rat magnetic beads (Qiagen, Hilden, Germany). The depletion procedure routinely removed 65-80% of total BM cells. It should be noted that depletion with the beads only, in the absence of the rat antibodies, also depleted about 50% of the BM cells, presumably via FcR/Ig interactions. […]

A further data set relates to C57BL/6 or FLKO mice. The data set is described as follows: In vivo M-CSF treatment, DC numbers in spleen and peritoneal lavage. On the set-up: species or system mouse. How it is done:
In vivo M-CSF treatment—Wild type and FLKO mice were treated ip with 10 μg of M-CSF in 0.01% BSA (100 μl volume), or with vehicle alone, for five consecutive days. At the end of five days mice were sacrificed. The peritoneum was flushed 3 times with Complete media and then organs were collected for DC purification.
Ex vivo DC purification—DCs were purified from spleens of M-CSF or vehicle treated mice essentially as previously described (21), using FACS buffer, RPMI and 1.077A Nycodenz (Progen Biotechnik GmbH, Heidelberg, Germany) that was adjusted to mouse osmolarity (308 mOsm).
Specifically cDC were reduced about 2-fold and pDC about 3-fold. This was substantially less of an effect than that seen in mice lacking FL but nevertheless, lack of M-CSF did result in reduced DC numbers, further substantiating the assumption that M-CSF is a DC poietin. To further validate the studies initiated by MacDonald et al (2005), M-CSF was administered to mice in order to analyze whether M-CSF could actually increase DC numbers in vivo. According to other references in the prior art, a range of exogenous M-CSF concentrations in the range of 10 to 200 μg/day has been administered. The source of M-CSF used has varied widely and consequently, as well as the specific activity. It is thus impossible to gauge an optimal or saturating level of M-CSF to administer. Moreover, it has been reported that M-CSF has an extremely short half-life of only 10 mins in the circulation^28. Due to the prohibitive cost of commercial M-CSF with a determined specific activity a ‘proof of principal’ trial experiment was conducted and 10 μg/day of M-CSF to C57BL/6 or FLKO mice for 5 days were administered. This amount was neither titrated nor was it attempted to extend the application period. […] Said observations indicate that M-CSF indeed was inducing an effect in vivo.

The test system of data set [2] is mouse bone marrow (BM) cells. The data set is described as follows: IFN-α production of M-CSF BM cultures in response to CpG-2216 (ELISA). The class given is cell-based. How it is done:
as §1, with “interactions. Total BM cells or depleted BM cells were cultured at 1.5×10^6 cells/ml in RPMI-1640 media (Gibco) supplemented with 10% FCS, 50 μM beta-mercaptoethanol, 100 IU/ml penicillin/streptomycin (complete media) and either 20 ng/ml recmuM-CSF or rechu-MCSF or 35 ng/ml recmuFL for 6-8 days at 37° C. in a humidified atmosphere containing 5% CO2.” for “interactions.”
Activation of DC subsets and analysis of cytokine production by ELISA—Unsorted M-CSF or FL BM cultures or sorted DCs (0.25−0.5×10^6 cells/ml) were stimulated for 18-24 hrs in complete media with or without an added stimulus. […] Other cytokines (IL-12 p70, IL-6, TNF-α, MCP-1 and IFN-γ) were measured using the Cytometric Bead Array, Mouse Inflammation Kit (Becton Dickinson). […]

Data set [3] concerns BM cells depleted of B220+ and CD11c+ cells. The data set is described as follows: pDC/cDC development in M-CSF BM cultures (CD11c/CD45RA staining). The class given is cell-based, mouse. As for the experimental part: M-CSF and FL BM cultures—BM cells were flushed from femurs and tibiae of mice. Red cell lysis buffer (Sigma-Aldrich) was used to deplete red blood cells from the BM cell suspensions. BM cells were then either cultured directly or after depletion. To deplete, BM cells were incubated for 30 min with rat antibodies to CD11c and CD45R (B220) followed by 30 min incubation with goat anti-rat magnetic beads (Qiagen, Hilden, Germany). The depletion procedure routinely removed 65-80% of total BM cells. It should be noted that depletion with the beads only, in the absence of the rat antibodies, also depleted about 50% of the BM cells, presumably via FcR/Ig interactions. Total BM cells or depleted BM cells were cultured at 1.5×10^6 cells/ml in RPMI-1640 media (Gibco) supplemented with 10% FCS, 50 μM beta-mercaptoethanol, 100 IU/ml penicillin/streptomycin (complete media) and either 20 ng/ml recmuM-CSF or rechu-MCSF or 35 ng/ml recmuFL for 6-8 days at 37° C. in a humidified atmosphere containing 5% CO2. The M-CSF cultures were fed with fresh M-CSF every 3 days, without media change.
Surface staining of M-CSF or FL BM cultures—Harvested cells were washed in PBS containing 2% FCS and 2 mM EDTA (FACS buffer). FcR binding was then blocked by incubation with 1 mg/ml purified anti CD16/32 monoclonal antibody (clone 2.4G2) for 20 mins on ice. An equal volume of 2× concentrated specific antibody stain was then added to the cell suspension and incubated for a further 20 mins. Cells were washed in FACS buffer and resuspended in FACS buffer containing 1 μg/ml propidium iodide.
Indeed, a population of 10-20% of cells within the cultures expressed high levels of CD45RA and medium levels of CD11c, together with the lack of CD3, CD19 or CD49b or NK1.1 expression, low side scatter and forward scatter this was commensurate with the phenotype of pDCs (FIG. 1B and data not shown).
It was clear that M-CSF could drive pDC development yet the yield of pDCs was substantially less then that obtained with FL. […]

For data set [4] the following is noted: reported in the literature; cited from earlier work.
In data set [5] the test system is CMP, CLP, GMP from C57BL/6 BM. The data set is described as follows: M-CSF cultures of purified progenitors (CMP, CLP, GMP) spiked into UBC-GFP BM cells. The class given is cell-based, mouse. The settings on record: M-CSF culture 6 days. How it is done:
CMP (Lin^−Sca-1^−ckit^+CD34^+FcR^int), CLP (Lin^−Sca-1^+c-kit^intIL-7R^+Thy-1^−) or granulocyte/macrophage progenitors (GMP, Lin^−Sca-1^−c-kit^+CD34^+FcR^hi) were isolated from C57BL/6 BM as previously described^21 and sorted to greater than 95% purity on a FACS-ARIA instrument. 2500 cells and serial 2-fold dilutions thereof were added to a 1 ml suspension of UBC-GFP BM cells in a 24-well plate. Final UBC-GFP BM cell concentration was 1.0×10^6 cells/ml. M-CSF or FL cultures were carried out in these wells as described above. After 6 days, samples were enumerated, analysed by FACS, and progeny arising from the C57BL/6 progenitors were gated as GFP^neg cells. To analyse M-CSFR (CD115) and Flt3 (CD135) expression on CLP (Lin^−Sca-1^+c-kit^intIL-7R^+Thy-1^−), lineage depleted cells were first stained with Sca-1-FITC and Thy-1-PE antibodies and the Sca-1^+Thy-1^− cells were sorted. These pre-enriched cells (>95% purity when reanalysed) were then stained with CD117-PE-CY7, IL-7R-APC and either CD115-PE or CD135-PE.
The identification of DC subtypes that could be generated in the absence of FL both in vivo and in vitro immediately raises the question of the nature of their precursor cells. It has been considered whether this factor acts on an early lineage progenitor or, since M-CSF is traditionally considered a ‘myeloid’ growth factor, on a later precursor within the myeloid lineage to generate M-DC. CMP, GMP and CLP were purified from mouse BM. Serial dilutions of the purified cell populations were admixed with ‘feeder’ UBC-GFP BM cells and M-CSF cultures were carried out for 6 days.

[6] abbreviates: 10 μg/day ip for 5 days, C57BL/6 and FLKO mice, vs vehicle.

“palmitoyl-3-cysteine-serine-lysine-4 [Pam-3-Cys]”: the “surface activation of M-pDC” value in the data set on M-pDC is on record as “very minor surface activation”.
On to Flt3 Inhibitor II, for which the “effect on generation of FL-DC” value in data set [1] was “highly inhibitory”.

B1: M-CSF: Recombinant murine or human Macrophage-Colony Stimulating Factor obtained from Tebu-Bio / R&D Systems (protein, UniProt P09603 33-554, looked up)
Macrophage colony-stimulating …: EEVSEYCSHMIGSGHLQSLQRLIDSQMETSCQITFEFVDQEQLKDPVCYLKKAFLLVQDIMEDTMRFRDNTPNAIAIVQLQELSLRLKSCFTKDYEEHDKACVRTFYETPLQLLEKVKNVFNETKNLLDKDWNIFSKNCNNSFAECSSQDVVTKPDCNCLYPKAIPSSDPASVSPHQPLAPSMAPVAGLTWEDSEGTEGSSLLPGEQPLHTVDPGSAKQRPPRSTCQSFEPPETPVVKDSTIGGSPQPRPSVGAFNPGMEDILDSAMGTNWVPEEASGEASEIPVPQGTELSPSRPGGGSMQTEPARPSNFLSASSPLPASAKGQQPADVTGTALPRVGPVRPTGQDWNHTPQKTDHPSALLRDPPEPGSPRISSLRPQGLSNPSTLSAQPQLSRSHSSGSVLPLGELEGRRSTRDRRSPAEPEGGPASEGAARPLPRFNSVPLTDTGHERQSEGSFSPQLQESVFHLLVPSVILVLLAVGGLLFYRWRRRSHQEPQRADSPLEQPEGSPLTQDDRQVELPV
As to B1, the “increase of cells that resembled DC in the peritoneal lavage” value in the data set on C57BL/6 or FLKO mice (10 μg/day for 5 days, a C57BL/6 mouse, data not shown) is “greater than 6 fold”. In addition, the “F4/80hi cells in peritoneal lavages” value with C57BL/6 or FLKO mice (10 μg/day for 5 days, data not shown) is “huge increase”. Also, the total splenocytes result with C57BL/6 or FLKO mice (10 μg/day ip for 5 days) is listed as “did not induce an increase”. For the same molecule, in the data set on C57BL/6 or FLKO mice (setting [6]), the “increase in cDC numbers in the spleen” value is listed as “about 2 fold” and the “increase in pDC numbers in the spleen” value was “about 2 fold”. In addition, in data set [2] (DC-depleted BM cells cultured with M-CSF for 6 days, non-adherent cells), the “CpG-induced IFN-α producing capacity” value is on record as “potent IFN-α producing capacity was detected again”. In addition, the “IFN-α production in response to CpG-2216” value in data set [2] (total BM cells cultured with M-CSF, 0-7 days, adherent and non-adherent cells) is given as “high levels”. In data set [3] (FLKO BM depleted of DC, exogenous M-CSF only), the “pDC development in BM cultures from FLKO mice” value is reported as “pDCs developed even in the absence of FL”. For the same molecule, the “population of cells with pDC phenotype (CD45RA high, CD11c medium) within the cultures” value in data set [3] (non-adherent M-CSF-generated cells, day 6) is 10-20%. For the same molecule, the “efficiency of pDC yield compared with FL” value in data set [3] (side by side after six days of culture, less efficient than FL) was “approximately 10 fold”. For the same molecule, the “half-life in the circulation” value in data set [4] was 10 min. Also, in data set [5] (CLP), the “output of M-cDC per input progenitor cell” value is recorded as “about 5” and the “output of M-pDC per input progenitor cell” value is listed as “at least 10”. Also, the “output of M-cDC per input progenitor cell” value in data set [5] (CMP) was 8-10. Further, the “M-DC production from progenitors” value in data set [5] (GMP) was “not capable of M-DC production”.
